Experiment: soluble on expression in E. coli; label from the status in PepcDB or PDB records
In the case of “MGHHHHHHSHSEVAIKIDFDFAPGSFDDQYQGCSKQVMEKLTQGDYFTKDIEAQKNYFRMWQKAHLAWLNQGKVLPQNMTTTHAVAILFYTLNSNVHSDFTRAMASVARTPQQYERSFHFKYLHYYLTSAIQLLRKDSIMENGTLCYEVHYRTKDVHFNAYTGATIRFGQFLSTSLLKEEAQEFGNQTLFTIFTCLGAPVQYFSLKKEVLIPPYELFKVINMSYHPRGNWLQLRSTGNLSTYNCQLLKASSKKCIPDPIAIASLSFLTSVIIFSKSRV”, the “soluble on expression in E. coli” value is reported as “not soluble”.
In the case of “MKVIKGLTAGLIFLFLCACGGQQIKDPLNYEVEPFTFQNQDGKNVSLESLKGEVWLADFIFTNCETICPPMTAHMTDLQKKLKAGNIDVRIISFSVDPENDKPKQLKKFAANYPLSFDNWDFLTGYSQSEIEEFALKSFKAIVKKPEGEDQVIHQSSFYLVGPDGKVLKDYNGVENTPYDDIISDVKSASTLKLEHHHHHH”, the “soluble on expression in E. coli” value is reported as “not soluble”.
With “MVVKEILRLLFLLAMYELGKYVTEQVYIMMTANDDVEAPSDYEKIRAEVSWLEHHHHHH” the “soluble on expression in E. coli” value was “not soluble”.
In the case of “AGTKLSLMPWFHGKITREQAERLLYPPETGLFLVRESTNYPGDYTLCVSSDGKVEHYRIMYHASKLSIDEEVYFENLMQLVEHYTSDADGLCTRLIKPKVMEGTVA”, the “soluble on expression in E. coli” value is reported as “soluble”.
With “MHLHFTPRQIVEKLDQYIIGQKDAKKAVAVALRNRYRRSKLAENLRDEIAPKNILMIGPTGVGKTEVARRMAKLVGAPFIKVEATKFTEVGYVGRDVESMVRDLVETSVRIVKEEMVVKVQDKAEEQANQRLVEILVPSPEKQSGFKNPLEMLFGGTQNSNQTTDSQEDVEIEKKRQDVERKLAAGLLEDEIVSIEVTEQQSSMFDMLQGTGMEQMGMNFQDALGSFMPKKTKKRKLSVKEARKVLTNEEAQRLIDMDEVTQEAVYRAEQLGIIFIDEIDKIAGKQSNSVDVSREGVQRDILPIVEGSNVATKYGSVKTDYILFVAAGAFHMSKPSDLIPELQGRFPIRVELTKLSTDDFVKILIEPDNALIKQYMALLATEGIEIEFSDEAIRKIAEIAYQVNQDTDNIGARRLHTIMEKLLEDLSFEASEITLEKITITPQYVEEKLATIAKNKDVSQFIL” the “soluble on expression in E. coli” value was “not soluble”.
With “AKEDNIEMQGTVLETLPNTMFRVELENGHVVTAHISGKMRKNYIRILTGDKVTVELTPYDLSKGRIVFRSR” the “soluble on expression in E. coli” value was “soluble”.
With “MNSVLSNIEKLDTYILRRNEYVAESKDEPNKLNTSRKLEVTTKKNQSNNKKRPPPINKARKSLPSIFRRAEENKDSAQIITPTGSKIIGSPLYKRSKSDSFFDHAFNFDKNLGKGSFGEVVAATCRSTSKKFAIKKIPFSKLSKDQYREAYGHMNIPCHPNIVRFHQAWIDKQILHIQLEMCDKSLAAYCHGIDWLEDKELWNVFLDILQGLGHLHNNFMLHNDIKPDNIFMTKNKVCKLGDFGLISDMRSEPINNSSNKHYQSEGDGKYCSKEAINGTLSIFSDIFSFGISILEVGTNIHLPSYGTGWEPIRKWEIPEEILEPMSDELRELVKQMMDKAPTRRPTCSELMKNHVVKEKLRIRKQEVEHIPSESQFQPISYLTTESPLGSRESSCSSIDFLDHFENAEKKTPFVSKLNFDLEDDEDEYEVFSPPRTPVKKSRYQQTMPEVSPPRKIQKLFQRKNLFDE” the “soluble on expression in E. coli” value was “not soluble”.
With “SLVHKKIVVPSATDMATRFTQDSFVFDCLSMYYVIDDPWAENCLAAGVNATNVTFGTEQPWDIVLRDFDSGLEKIERSPYLALATNRQEIDAANKQGKLAVIIGTQGSAMVDLEFHRLRTMHRLGMRYFGLAYTGPTMFADGCGESRNAGLSFAGIELIDACNDLGLILDLSHVGHRSREEAVARSRFPVYTHSNSYALNPNDRNTTDETARAIRAKGGIMGICGLPKTVHPENATLNELLDHADHWVKTIDAAHVGFGLDFVEAYKSDRSTMPAASRLWRTRRPDIFGTVEEFHLQDYPLGIASIKQLPNLTQGLFDRGYAEKEVAGIIGGNWLRHFTEVYG” the “soluble on expression in E. coli” value was “soluble”.
For “MSSIGTGYDLAASTFSPDGRIFQVEYAQKAVDNAGTMIAIRGKNGVVVVADKLISSKLYTDNANPRMFNVNDNVGVAVAGNYPDGFALKNYAYGEAMKWLKDYREPMPIQNIANSVAEYIHIHTLGISRPFGAGAFFMSWNKQTGGRLFLVEPSGLNYEYKAWAVGKHRQAAKAEIEKLKIEELDVNQLVKEAARIIMVVRDENKDKNVQIEMGWVGEQTNGKYEEVPSEVVTAAEEWAIAKLDEDDMDD”, the “soluble on expression in E. coli” value was “not soluble”.
With “MKIALMMENSQASKNAIIYNELSAVANEKGFPVFNVGMCDENDHHLTYIHLGIMASILLNANAVDFVVTGCGTGQGALMSLNIHPGVICGYCIDPADAFLFAQINNGNALSLPFAKGFGWGAELNVRFIFEKAFTGRKGEGYPPERKAPQVRNAGILNQVKAAVVKENYLDTLRAIDPELVKTAVSGPRFQQCLFENGQNKEIEAFVREMLG” the “soluble on expression in E. coli” value was “not soluble”.
In the case of “MKTCFLSIWRVVDPIYFFFSRLSLIDNDQKSVFRVRLTKYKGHHVVLSDGTHIRKNDVLVKIHLHNIKLIRELQSIESAVRKGIIIYQKVYPSMPLLLDYINNHKKSEKIKGNHWITMLDKGVERLGFDVITPVNPFYRCFKKVSHVPILYLTSKPVSLRHLPNSSYLFISKEKLQKTYQKKDMAGDPLEHHHHHH”, the “soluble on expression in E. coli” value is reported as “not soluble”.
For “MAHHHHHHMDINNIMEEVQAIKVLPHMMFNASKLKVLSDYVNVAFENNEYYDNDVMLTLLRLFCLYPHCYDKDIIKKILICVLYNINNVDMNMYMSLINSSLYDDNIKSVIYIYELIKNCQYKKLWNCINNNIGNEYNNCDYSYLKNDKNFICNIRKYILNTISISFESIYLKNMSEYLNIQDNTQLEQFLNENKWTIKMINHKGKDEQICYNGNIETVQNKKNINTYFTEDNIGSYITKLNH”, the “soluble on expression in E. coli” value was “not soluble”.
With “SLSDPIIDMHLHASAADEQGPPPLAMCAPINPMPTWDQRQPWTTGLIAMFKAPKCADPIWSPTTDDEIRDKTLAIMAKRNIIGVVSGPYKRVMAWRALAPDRVLPGLMPTMSDLSKPKVLLDDFGKAKAAGQLAVIGELGFQYEGIAPNDPRLENLWAAAEAADVPVAIHIGPGPPGVAYLPGGGYRARMSSPLLLEDVLVKHPKLRINVMHAGYPMLDDTLALLYAHPQVYVDTGVIVYSQPRPAFYRYLQTLVDAGFGERVMFGSDQMVWPETIERSIAVIDEAPFLSAQQKRDILYNNAARFLRLDEATQAKHRAM” the “soluble on expression in E. coli” value was “soluble”.
In the case of “MIPKNIHLIFLRKDEPFPELFEKCKQEIQVNHPDWNIRLYNKDDAQDILNQDLPEYIEAYNAFYHNVQKADFLRLALVYLYGGFYMDLDMLSLKPLDELRKYNLVLGEEKIVCQAEQEALNLRYRLRIANYMFGGIPKHPFLHRIMDEMAERATIILKSQQEILDITGPGLLTDTYWDNYGMYTDITLLRNTDKRCRQPYHNEISCHFGDYAAHLHAGTWRTGILEHHHHHH”, the “soluble on expression in E. coli” value is reported as “soluble”.
In the case of “MSLEKKMEEKKKIKLIATDMDGTLVNDAKEVPASFAPWVLSHPDQQMVIASGRPYYTNEELFKEIKDHLIFIGDNGGLIYQQGQVLAKAGITAEEAKFCLDLFKDEPLANPILCGASQAICHDPKGDRNFLKQLDTYYIKRRYVEDLEAEVNSDEIIKFTVYIEGGAAESIYRQLPEMPGNLSAVLAGPEWIDIVNKDANKGAAVKKIADLKGIKQDEILAFGDYLNDLTMLEAAGTSYAMVNGHPDLKKIADHIAPSNNDEGVMQILRKLFDEGHHHHHH”, the “soluble on expression in E. coli” value is reported as “soluble”.
With “MQQVFKKPVSLKDVQTHFCPGCHHGTFHRLVAEAMDEFGVQKKTIGVASVGCSVFLYGYFDIDVVEAPHGRAPAVATGVKRARPDAFVFTYQGDGDLAAIGTSEIIHAANRGEDITVIFVNNTTYGMTGGQMAPTTLVGQRTSTSPYGRKNEKDGSPIRMAELLAQLEGVAFSARVAVNNPKNLMDAKRQIKKAFRYQAEGKGFSFIEALSSCPTNWGMDALAANERVGTEMCA” the “soluble on expression in E. coli” value was “not soluble”.
With “MSLRRTRIRFEAWTAENAHRYHSLAHALPQLGARRPTGLLLDEAGRAAIPFLRTGQFIIGLGDPAGSERNCVAAIWRLRDLALQEGCKLAFIQVGQSLMAVYNDLGLTVCPDRTAGTVCCFSEDYRMLRAFLKGEERLARKREGHHHHHH” the “soluble on expression in E. coli” value was “not soluble”.
In the case of “HDKVVVLEAKNGNVTFDHKKHAGVKGECKACHETEAGGKIAGMGKDWAHKTCTGCHKEMGKGPTKCGECHKK”, the “soluble on expression in E. coli” value is reported as “soluble”.
With “MGSDKIHHHHHHMKEYRIRPREANLSFLEDLDEEQRRAVVESEGRCIVIAGPGSGKTRVITYKIAYLLANGVDPSRILLVTFTRAAAREMVERAKAVTGRELSEMLAGTFHHVCNHFLRKYAPYVGLERNYSILDREDAESLMRHARSKYLERKSKEERKNFPQPSVLMAIYSYMKNTLKSLRESIVVKNPKFLDLKEEISEIFDLYEQEKRSQNVVDYEDLLFYAYRLFEENKEIRDREAERFLWILVDEFQDTNYVQYKIVEHLSSKHGNILAVGDDAQSIYSFRGARYENVEDFIRVPGTKIFKIQTNYRSTESIVKFINAMLPRKSVPKELKPVKKDGMKPVVVKTWDRYEEARFVSQRILELIEEGFKPEEIAVLYRSHSHSLELQMELVRSRIDFRVLSGPRFTESAHVKDVLSFLRIVQNPRDKSAWLRAAKLFYGIGDRTASKIADLASAYVEEGLDPFQELKKVSFSGEYSRFIDILDQIRKLDSPGEMIERVLSSFYSEYLEARYPDFREREMDLERLVEIASRYTSLESFLTDLAVTENVEIEREISQKEGKVTLTTVHQAKGLEWRVVFVISVNPGDFPNYFAISEGNLDEEERIFYVAITRAKEQLYISYQVTGTSYPYRGNRFIMRSGENFIDRIPLELVEFWEVK” the “soluble on expression in E. coli” value was “not soluble”.
With “AAAAAAMTMMDMNFKYCHKIMKKHSKSFSYAFDLLPEDQRKAVWAIYAVCRKIDDSIDVYGDIQFLNQIKEDIQSIEKYPYEYHHFQSDRRIMMALQHVAQHKNIAFQSFYNLIDTVYKDQHFTMFETDAELFGYCYGVAGTVGEVLTPILSDHETHQTYDVARRLGESLQLINILRDVGEDFENERIYFSKQRLKQYEVDIAEVYQNGVNNHYIDLWEYYAAIAEKDFRDVMDQIKVFSIEAQPIIELAARIYIEILDEVRQANYTLHERVFVEKRKKAKLFHEINSKYHRI” the “soluble on expression in E. coli” value was “soluble”.
With “MNVDEDCYFASLTHGLNTDCRRANAKMKETLKNYNFSAFLVEQNCLRCPNNDCNLSFVLILQKTEFFRLKRDVVFEVRPTIVVHRSFKELVSADRKIRQDITEKNTVGVQASVETVNKFVDACPSICNIQSQTDIMAEKMHIGIQTEEVKFVSEISALGITEVECQNVFPTSFIKTEPVSTSPVRTMEVQQDNDDDDVMFIEIRPRIHEFPSTREIKQEENTTEDTVHLEKVIPEDSVRDVKDEPISEPVEQETSSSSISKELGDSGSSKFSDVADNHTASLNLSMLSQRSTVTSSSISQSIPTPRGRDTPSAAKRAKFSDVEMCRICWDVTFFTTLEEYCNHVQDRHCSVARFKCSSCERKFWDIRSGTQHLKAHNEDGAGNSISHILPEISEEHLSKFINVANQCYPETFRNTQSEKILDIINALP” the “soluble on expression in E. coli” value was “not soluble”.
With “PGAPSTVRISKNVDGIHLSWEPPTSPSGNILEYSAYLAIRTAQMQDNPSQLVFMRIYCGLKTSCTVTAGQLANAHIDYTSRPAIVFRISAKNEKGYGPATQIRWLQGNSK” the “soluble on expression in E. coli” value was “soluble”.
For “MSLNEMEKRPEDTRVVVGMSGGVDSSVAALLLKEQGYDVIGIFMKNWDDTDENGFCTATEDYEDVIRVCNQIGIPYYAVNFEKQYYEKVFQYFLDEYKAGRTPNPDVLCNKEIKFKAFLEHALSLGADYLATGHYARVDRSGGKVRMLRGIDENKDQTYFLNQLTEDTLSKVMFPIGELQKSRVREIAKEAELATATKKDSTGICFIGERNFKTFLSQYLPAQPGDMMTMDGEVKGRHDGLMYYTIGQRHGLGIGGSGEPWFAVGKDLEKNILYVDQGFHNPLLYSDKITATNISWVRSDIMKGEEISCTAKFRYRQEDHKVTVRMTGEGEAEVIFDEQVRAVTPGQAVVFYDGEECLGGGTIDDVYKDGTKLWYVEGHHHHHH”, the “soluble on expression in E. coli” value was “soluble”.
